Assay results taken from article doi:10.1101/2024.11.26.625467.

Target: CA09 N1 sNAp (stabilized NA protein, neuraminidase head of H1N1 A/California/07/2009) (influenza A virus H1N1 A/California/07/2009)
Assay: cryo-EM structure

CA09 N1 sNAp (stabilized NA protein, neuraminidase head of H1N1 A/California/07/2009) (domain or fragment)
stoichiometry N: 4
